Source: US20260166140A1, “Combinations Involving Epidermal Growth Factor Receptor Tyrosine Kinase Inhibitors For the Treatment of Cancer” (AstraZeneca AB, priority 2022, published 2026)

Assays:
Cynomolgus monkey EGFR = experiment: SPR (BIAcore T200) antibody capture kinetics; format: binding; conditions: 25° C.
Method: (§1) Mouse anti-human IgG was immobilized on a CM4 sensor chip with a final surface density of ˜2000 resonance units (RUs). A reference flow cell surface was also prepared on this sensor chip using identical immobilization protocol. Test and control article antibodies were prepared at 5-20 nM in instrument buffer (HBS-EP buffer; 0.01M HEPES, pH 7.4, 0.15M NaCl, 3 mM EDTA, and 0.005% P-20), along with 3-fold serial dilutions of purified EGFR (0.27-200 nM human, 0.4-900 nM cyno, and 4-1000 nM murine) or cMET proteins (0.27 to 66 nM human and 0.27-22 nM cyno) in instrument buffer. A sequential approach was utilized for kinetic measurements. Antibodies were first injected over the capture surface, at a flow rate of 10 μL/minute. Once the binding of the captured antibody stabilized, a single concentration of the analyte was injected over both capture and reference surfaces, at a flow rate of 75 μL/minute. The resulting binding response curves yielded the association phase data. Following the injection of analyte, the flow was then switched back to instrument buffer for 15 minutes to permit the collection of dissociation phase data, followed by a 1-minute pulse of 10 mM glycine, pH 1.5, to regenerate the antibody-captured surface on the chip. Binding responses against test and control article antibodies were recorded from duplicate injections of each concentration of analyte. In addition, several buffer injections were interspersed throughout the injection series. Select buffer injections were used along with the reference cell responses to correct the raw data sets for injection artifacts and/or nonspecific binding interactions, commonly referred to as “double referencing”. Corrected binding data were globally fit to a 1:1 binding model (Biacore T200 Evaluation software 2.0, GE Healthcare, Pittsburgh, PA).

Cynomolgus monkey cMET = experiment: SPR (BIAcore T200) antibody capture kinetics; format: binding; conditions: 25° C.
Method: as §1

Human EGFR = Human EGFR (Homo sapiens, UniProt P00533); experiment: SPR (BIAcore T200) antibody capture kinetics; format: binding; conditions: for Koff / Kon: 25° C.; for Kon: 1:1 binding model
Method: as §1

Human cMET = Human cMET (Homo sapiens, UniProt P08581); experiment: SPR (BIAcore T200) antibody capture kinetics; format: binding; conditions: for Koff / Kon: 25° C.
Method: as §1

Mouse EGFR = target: T1, Mouse EGFR (Mus musculus, UniProt Q01279); experiment: SPR (BIAcore T200) antibody capture kinetics; format: binding; conditions: for Koff / Kon: 25° C.
T1 construct: purchased SinoBiological 51091-M08H
Method: as §1

H1975 cells = experiment: Internalization of AF647-labeled antibodies, live cell confocal fluorescence microscopy; format: cell-based; conditions: for internalization half-times: images every 5 min
Method: Internalization kinetics of AlexaFluor647 (AF647) primary-labeled DuetMabs: RAA22/B09 and QD6/B09 antibodies was assessed in vitro using the EGFR and c-MET expressing cell line, H1975. Each antibody was pre-bound to cells and antibody translocation from cell surface to cytoplasm was then monitored using live cell confocal fluorescence microscopy. Both antibodies localized primarily on the cell surface before (T=0) subjecting to internalization conditions and were translocated to the cytoplasm area after 1 hour (data not shown). Kinetic images were taken every 5 min over the time course of internalization and were processed using a quantitative algorithm to determine internalization kinetic constants and half-times.
To evaluate the mode of antibody internalization and to investigate contribution of each arm to overall internalization of the DuetMabs, we evaluated internalization of single-arm specific control antibody molecules, QD6/IgG and B09/IgG, against duet QD6/B09, and RAA22/IgG and B09/IgG against duet RAA22/B09 in H1975 cells, which express both EGFR and c-MET. Since only one arm is specific for the target receptor, the control antibody can only internalize via one receptor eliminating dual receptor targeting and cross-linking as mode of internalization.

[1] = target: EGFR and c-MET co-expressed on cells (HCC827, H1975); experiment: live cell confocal fluorescence microscopy, AF647-labelled antibody pre-bound to HCC827 cells
[2] = target: T2, Cynomolgus monkey cMET (recombinant, soluble monomeric) (cynomolgus monkey, UniProt A0M8R7 25-932 (Papio anubis entry)); experiment: SPR, Biacore T200, antibody captured on anti-human IgG, soluble monomeric antigen as analyte, 25 C
T2 construct: also called cyno cMET

[3] = target: T3, Human EGFR (recombinant, soluble monomeric) (human, UniProt P00533 25-645); experiment: as above
T3 construct: also called EGFR antigen

[4] = target: T4, Cynomolgus monkey EGFR (recombinant, soluble monomeric) (cynomolgus monkey, UniProt P55245 25-645 (rhesus entry)); experiment: as above
T4 construct: also called cyno EGFR

[5] = target: T5, Mouse EGFR (recombinant, soluble monomeric) (mouse, UniProt Q01279 25-647); experiment: as above
T5 construct: also called murine EGFR

HER2 = target: T6, HER2 (UniProt P04626 23-652, limits assumed); experiment: ELISA: antigen coated at 1 ug/mL, antibody dilution series, goat anti-human Fab-HRP, A450; panel Human HER2
T6 construct: also called EGFR HER family protein HER2

Chain of Cynomolgus monkey cMET (as listed by the source): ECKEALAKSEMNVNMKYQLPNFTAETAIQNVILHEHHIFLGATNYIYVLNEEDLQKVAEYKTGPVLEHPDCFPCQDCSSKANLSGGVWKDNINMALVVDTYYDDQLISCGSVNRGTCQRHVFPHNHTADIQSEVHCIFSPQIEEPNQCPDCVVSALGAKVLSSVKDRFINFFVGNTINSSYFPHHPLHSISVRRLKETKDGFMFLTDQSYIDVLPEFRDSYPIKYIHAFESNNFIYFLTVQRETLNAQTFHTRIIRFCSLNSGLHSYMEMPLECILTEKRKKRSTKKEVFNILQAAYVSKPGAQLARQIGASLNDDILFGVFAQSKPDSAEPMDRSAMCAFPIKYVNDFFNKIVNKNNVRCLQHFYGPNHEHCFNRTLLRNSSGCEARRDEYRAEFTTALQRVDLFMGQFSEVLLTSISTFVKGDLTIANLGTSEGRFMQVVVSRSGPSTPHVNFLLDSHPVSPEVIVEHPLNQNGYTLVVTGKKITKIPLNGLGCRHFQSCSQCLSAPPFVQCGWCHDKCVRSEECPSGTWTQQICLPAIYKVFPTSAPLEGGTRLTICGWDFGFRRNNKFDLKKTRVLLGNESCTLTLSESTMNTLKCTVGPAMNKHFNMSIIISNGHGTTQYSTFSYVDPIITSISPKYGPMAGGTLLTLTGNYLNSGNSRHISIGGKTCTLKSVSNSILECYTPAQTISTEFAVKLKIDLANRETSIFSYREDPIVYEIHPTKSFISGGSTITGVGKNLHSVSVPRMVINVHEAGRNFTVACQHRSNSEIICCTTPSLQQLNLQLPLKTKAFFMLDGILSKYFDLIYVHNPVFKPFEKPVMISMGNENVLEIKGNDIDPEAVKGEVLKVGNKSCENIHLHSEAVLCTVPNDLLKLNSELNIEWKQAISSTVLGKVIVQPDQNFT
T2 sequence (A0M8R7 25-932 S170N/I621T): as the sequence (as listed by the source) above
Chain of Human cMET (P08581 25-932): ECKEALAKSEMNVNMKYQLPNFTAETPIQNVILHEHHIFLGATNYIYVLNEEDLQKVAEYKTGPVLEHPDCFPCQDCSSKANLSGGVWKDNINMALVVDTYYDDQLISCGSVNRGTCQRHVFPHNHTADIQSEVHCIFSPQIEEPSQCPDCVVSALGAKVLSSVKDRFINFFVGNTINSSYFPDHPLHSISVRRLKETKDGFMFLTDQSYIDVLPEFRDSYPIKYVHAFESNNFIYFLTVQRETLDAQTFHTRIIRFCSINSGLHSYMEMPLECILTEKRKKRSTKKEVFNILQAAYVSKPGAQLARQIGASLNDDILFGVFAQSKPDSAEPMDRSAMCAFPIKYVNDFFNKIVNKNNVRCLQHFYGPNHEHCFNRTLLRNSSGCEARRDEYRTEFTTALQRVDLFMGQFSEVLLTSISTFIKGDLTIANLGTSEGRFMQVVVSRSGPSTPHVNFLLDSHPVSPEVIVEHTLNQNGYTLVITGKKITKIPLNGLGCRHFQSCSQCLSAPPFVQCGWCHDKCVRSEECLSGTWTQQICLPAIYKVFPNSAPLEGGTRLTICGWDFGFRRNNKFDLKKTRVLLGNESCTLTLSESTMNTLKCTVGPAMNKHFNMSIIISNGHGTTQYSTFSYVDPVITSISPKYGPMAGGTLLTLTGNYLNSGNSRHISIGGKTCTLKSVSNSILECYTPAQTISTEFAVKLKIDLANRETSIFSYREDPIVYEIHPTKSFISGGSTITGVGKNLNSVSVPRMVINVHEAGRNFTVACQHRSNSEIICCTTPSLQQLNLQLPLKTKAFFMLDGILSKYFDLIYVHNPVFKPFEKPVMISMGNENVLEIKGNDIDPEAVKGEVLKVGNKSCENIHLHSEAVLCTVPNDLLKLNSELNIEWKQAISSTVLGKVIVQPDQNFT

| Molecule | Koff (Cynomolgus monkey EGFR) [s⁻¹] | Kon (Cynomolgus monkey EGFR) [M⁻¹ s⁻¹] | Koff (Cynomolgus monkey cMET) [s⁻¹] | Kon (Cynomolgus monkey cMET) [M⁻¹ s⁻¹] | Koff (Human EGFR) [s⁻¹] | Kon (Human EGFR) [M⁻¹ s⁻¹] | Koff (Human cMET) [s⁻¹] | Kon (Human cMET) [M⁻¹ s⁻¹] | Koff (Mouse EGFR) [s⁻¹] | Kon (Mouse EGFR) [M⁻¹ s⁻¹] | internalization half-times (H1975 cells) [min] | Kd [2] [nM] | koff [2] [s⁻¹] | kon [2] [M⁻¹ s⁻¹] | Kd [3] [nM] | koff [3] [s⁻¹] | kon [3] [M⁻¹ s⁻¹] | Kd [4] [nM] | koff [4] [s⁻¹] | kon [4] [M⁻¹ s⁻¹] | also measured |
| --- | --- | --- | --- | --- | --- | --- | --- | --- | --- | --- | --- | --- | --- | --- | --- | --- | --- | --- | --- | --- | --- |
| RAA22/B09-57 DuetMab (bispecific antibody, human IgG1, kappa, lambda, also called monovalent bispecific EGFR/cMET DuetMAb RAA22/B09; RAA22/B09-Maia) heavy 1: QVQLVQSGAEVKKPGSSVKVSCKASGGTFSDNDFSWVRQAPGQGLEWMGAIVAVFRTETYAQKFQDRVKITADISTRTTYMELSSLRSEDTAVYYCARRLMSAISGPGAPLLMWGQGTLVTVSSASTKGPSVFPLAPSSKSTSGGTAALGCLVKDYFPEPVTVSWNSGALTSGVHTFPAVLQSSGLYSLSSVVTVPSSSLGTQTYICNVNHKPSNTKVDKRVEPKSCDKTHTCPPCPAPELLGGPSCVFLFPPKPKDTLMISRTPEVTCVVVDVSHEDPEVKFNWYVDGVEVHNAKTKPREEQYNSTYRVVSVLTVLHQDWLNGKEYKCKVSNKALPAPIEKTISKAKGQPREPQVCTLPPSREEMTKNQVSLSCAVKGFYPSDIAVEWESNGQPENNYKTTPPVLDSDGSFFLVSKLTVDKSRWQQGNVFSCSVMHEALHNHYTQKSLSLSPGK heavy 2: QVQLVQSGAEVKKPGASVKVSCKASGYTFTDYYIHWVRQATGQGLEWMGWMNPNSGNTGYAQKFQGRVTMTRDTSISTAYMELSSLRSEDTAVYYCARGQGYTHSWGQGTMVTVSSASTKGPSVCPLAPSSKSTSGGTAALGCLVKDYFPEPVTVSWNSGALTSGVHTFPAVLQSSGLYSLSSVVTVPSSSLGTQTYICNVNHKPSNTKVDKRVEPKSVDKTHTCPPCPAPELLGGPSCVFLFPPKPKDTLMISRTPEVTCVVVDVSHEDPEVKFNWYVDGVEVHNAKTKPREEQYNSTYRVVSVLTVLHQDWLNGKEYKCKVSNKALPAPIEKTISKAKGQPREPQVYTLPPCREEMTKNQVSLWCLVKGFYPSDIAVEWESNGQPENNYKTTPPVLDSDGSFFLYSKLTVDKSRWQQGNVFSCSVMHEALHNHYTQKSLSLSPG light 1: QSALTQPRSVSGSPGQSVTISCTGTSSDVGGYNYVSWYQQHPGKAPKLMIYDVSKRPSGVPDRFSGSKSGNTASLTISGLQAEDEADYYCSSYTSSDTLEIFGGGTKLTVLGQPKAAPSVTLFPPSSEELQANKATLVCLISDFYPGAVTVAWKADSSPVKAGVETTTPSKQSNNKYAASSYLSLTPEQWKSHRSYSCQVTHEGSTVEKTVAPTECS light 2: DIQMTQSPSTLSASVGDRVTITCRASEGIYHWLAWYQQKPGKAPKLLIYKASSLASGVPSRFSGSGSGTEFTLTISSLQPDDFATYYCQQYSNYPPTFGGGTKLEIKRTVAAPSVFIFPPCDEQLKSGTASVVCLLNNFYPREAKVQWKVDNALQSGNSQESVTEQDSKDSTYSLSSTLTLSKADYEKHKVYACEVTHQGLSSPVTKSFNRGEV | 0.00548 | 27800 | 0.00212 | 974000 | 0.00201 | 44700 | 0.000986 | 443000 | 0.0206 | 35400 | 43.2 ± 15.5 | 2.2 | 0.00212 | 974000 | 45 | 0.00201 | 44700 | 197 | 0.00548 | 27800 | Kd (Human cMET; koff/kon): ~2 nM; binding at T=0 (H1975 cells): 3.5×10^6 MFI; cytoplasmic intensity values, fold higher than B09-IgG (H1975 cells): 4.70 fold; cytoplasmic intensity values, fold higher than RAA22-IgG (H1975 cells): 10.98 fold; MFI at T=0 [1]: 3.1e+07 MFI; Kd [5]: 575 nM; koff [5]: 0.0206 s⁻¹; kon [5]: 35400 M⁻¹ s⁻¹; binding result (HER2): no binding (tested: 10 ug/ml) |
| QD6/B09-57 DuetMab (bispecific antibody, human IgG1, kappa, lambda, also called monovalent bispecific EGFR/cMET DuetMAb QD6/B09) heavy 1: QVQLVQSGAEVKKPGSSVKVSCKASGGTFSDNDFSWVRQAPGQGLEWMGAIVAVVRTETYAQKFQDRVKITADISTRTTYMELSSLRSEDTAVYYCARRLMSAISGPGAPLLMWGQGTLVTVSSASTKGPSVFPLAPSSKSTSGGTAALGCLVKDYFPEPVTVSWNSGALTSGVHTFPAVLQSSGLYSLSSVVTVPSSSLGTQTYICNVNHKPSNTKVDKRVEPKSCDKTHTCPPCPAPELLGGPSCVFLFPPKPKDTLMISRTPEVTCVVVDVSHEDPEVKFNWYVDGVEVHNAKTKPREEQYNSTYRVVSVLTVLHQDWLNGKEYKCKVSNKALPAPIEKTISKAKGQPREPQVCTLPPSREEMTKNQVSLSCAVKGFYPSDIAVEWESNGQPENNYKTTPPVLDSDGSFFLVSKLTVDKSRWQQGNVFSCSVMHEALHNHYTQKSLSLSPGK heavy 2: QVQLVQSGAEVKKPGASVKVSCKASGYTFTDYYIHWVRQATGQGLEWMGWMNPNSGNTGYAQKFQGRVTMTRDTSISTAYMELSSLRSEDTAVYYCARGQGYTHSWGQGTMVTVSSASTKGPSVCPLAPSSKSTSGGTAALGCLVKDYFPEPVTVSWNSGALTSGVHTFPAVLQSSGLYSLSSVVTVPSSSLGTQTYICNVNHKPSNTKVDKRVEPKSVDKTHTCPPCPAPELLGGPSCVFLFPPKPKDTLMISRTPEVTCVVVDVSHEDPEVKFNWYVDGVEVHNAKTKPREEQYNSTYRVVSVLTVLHQDWLNGKEYKCKVSNKALPAPIEKTISKAKGQPREPQVYTLPPCREEMTKNQVSLWCLVKGFYPSDIAVEWESNGQPENNYKTTPPVLDSDGSFFLYSKLTVDKSRWQQGNVFSCSVMHEALHNHYTQKSLSLSPG light 1: QSALTQPRSVSGSPGQSVTISCTGTSSDVGGYNYVSWYQQHPGKAPKLMIYDVSERPSGVPDRFSGSKSGNTASLTISGLQAEDEADYYCFSYTSSDTLEIFGGGTKLTVLGQPKAAPSVTLFPPSSEELQANKATLVCLISDFYPGAVTVAWKADSSPVKAGVETTTPSKQSNNKYAASSYLSLTPEQWKSHRSYSCQVTHEGSTVEKTVAPTECS light 2: DIQMTQSPSTLSASVGDRVTITCRASEGIYHWLAWYQQKPGKAPKLLIYKASSLASGVPSRFSGSGSGTEFTLTISSLQPDDFATYYCQQYSNYPPTFGGGTKLEIKRTVAAPSVFIFPPCDEQLKSGTASVVCLLNNFYPREAKVQWKVDNALQSGNSQESVTEQDSKDSTYSLSSTLTLSKADYEKHKVYACEVTHQGLSSPVTKSFNRGEV | 0.000585 | 210000 | 0.00206 | 958000 | 0.000374 | 63500 | 0.000696 | 425000 | 0.00078 | 126000 | 37.5 ± 10.6 | 2.2 | 0.00206 | 958000 | 5.9 | 0.000374 | 63500 | 2.8 | 0.000585 | 210000 | Kd (Human EGFR; KD calculated as koff/kon): ~6 nM; Kd (Mouse EGFR; koff/kon): ~6 nM; Kd [5]: 6.2 nM; koff [5]: 0.00078 s⁻¹; kon [5]: 126000 M⁻¹ s⁻¹; binding result (HER2): no binding (tested: 10 ug/ml) |
